Non-standard residues stand in square brackets, D forms with d. No end group written: not given here. *: point of attachment. Biotin = O=C1N[C@H]2[C@H](CS[C@H]2CCCCC(=O)*)N1; pY = N[C@@H](Cc1ccc(OP(=O)(O)O)cc1)C(=O)O
B1: EAT-2 127 peptide, biotinylated, phosphorylated (peptide)
peptide: Biotin-NSNSD[pY]VDVLP
B2: FYN-SH3-SH2 (aa 82 to 248) (domain or fragment)
chain: not shown
B3: LCK-SH3-SH2 (aa 58 to 230) (domain or fragment, human, UniProt P06239 58-230, looked up)
chain: ASPLQDNLVIALHSYEPSHDGDLGFEKGEQLRILEQSGEWWKAQSLTTGQEGFIPFNFVAKANSLEPEPWFFKNLSRKDAERQLLAPGNTHGSFLIRESESTAGSFSLSVRDFDQNQGEVVKHYKIRNLDNGGFYISPRITFPGLHELVRHYTNASDGLCTRLSRPCQTQKPQ

Assays:
Assay in all cases: SPR
[1] = biological target: T1, PLC-γ1 SH2 N+C (aa 545 to 749) (human, UniProt P19174 545-749)
T1 sequence (looked up): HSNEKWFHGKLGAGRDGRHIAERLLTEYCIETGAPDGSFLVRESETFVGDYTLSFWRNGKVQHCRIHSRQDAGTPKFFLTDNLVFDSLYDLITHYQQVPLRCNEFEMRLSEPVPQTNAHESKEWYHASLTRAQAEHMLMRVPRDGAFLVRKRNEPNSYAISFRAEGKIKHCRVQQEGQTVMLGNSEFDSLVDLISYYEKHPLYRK

[2] = biological target: B3
[3] = biological target: B2
[4] = biological target: B1

B1
Kd [1]: ~0.04 µM

Biotin-HPPPPPGHRSQAPSHRPPPPGHRVQ [CD2-281-305 peptide, biotinylated]
Kd [2]: > 1000 µM | Kd [3]: ~4 µM

Biotin-QKGPPLPRPRVQPKPPHG [CD2-322 peptide, biotinylated]
Kd [2]: > 1000 µM | Kd [3]: ~4 µM

B2
fold weaker than FYN binding to the CD244 ITSM [4]: ~5 fold

Biotin-HNPG[pY]LVVLP [LAT 132 peptide, biotinylated, phosphorylated]
Kd [1]: ~0.02 µM

Biotin-EFLTI[pY]EDVKD [CD244 ITSM 1 peptide, biotinylated, phosphorylated]
Kd [2]: ~2 µM | Kd [3]: ~0.2 µM

B3
fold weaker than FYN binding to human EAT-2 [4]: 10 fold

Source: publication PMC2757176 (The Journal of biological chemistry, 2009)
